Source: patent JP2018038398A (dated 2018)
Values belong to the binder of their own block, whether it stands above or below them.

Tests used:
[1] = biological target: T1, ヒトTFPI(American Diagnostica) (human, UniProt P10646 29-304, limits assumed); assay: ELISA screen of Fab lysates on coated human TFPI
T1 construct: Coated on plates (ELISA) or coupled to a CM5 chip (Biacore); also called human TFPI; hTFPI
T1 sequence (looked up): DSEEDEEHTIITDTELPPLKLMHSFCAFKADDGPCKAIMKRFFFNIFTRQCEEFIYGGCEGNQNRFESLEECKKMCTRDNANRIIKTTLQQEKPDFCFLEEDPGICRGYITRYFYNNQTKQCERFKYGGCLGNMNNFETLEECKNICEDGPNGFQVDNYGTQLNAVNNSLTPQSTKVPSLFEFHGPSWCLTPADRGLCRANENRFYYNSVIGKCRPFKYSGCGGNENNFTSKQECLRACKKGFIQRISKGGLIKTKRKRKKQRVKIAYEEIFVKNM

マウスTFPI(R&D System) [2] = biological target: T2, マウスTFPI(R&D System) (mouse, UniProt O54819 29-289, limits assumed); assay: ELISA on coated mouse TFPI
T2 construct: also called mouse TFPI; mTFPI
T2 sequence (looked up): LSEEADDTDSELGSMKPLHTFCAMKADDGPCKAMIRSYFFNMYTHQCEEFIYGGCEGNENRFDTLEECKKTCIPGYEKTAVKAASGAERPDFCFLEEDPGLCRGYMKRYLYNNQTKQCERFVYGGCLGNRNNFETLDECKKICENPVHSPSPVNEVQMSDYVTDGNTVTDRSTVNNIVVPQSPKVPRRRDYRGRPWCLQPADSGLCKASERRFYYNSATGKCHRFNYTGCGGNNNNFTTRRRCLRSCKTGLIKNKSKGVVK

[3] = biological target: T1, ヒトTFPI(American Diagnostica); assay: ELISA on coated human TFPI
マウスTFPI(R&D System) [4] = biological target: T2, マウスTFPI(R&D System); assay: ELISA on coated mouse TFPI, IgG against Fab
[5] = biological target: T1, ヒトTFPI(American Diagnostica); assay: ELISA on coated human TFPI, IgG against Fab

binding result [1]: binds
B1: TP-2A8 (Fab, V domains shown)
VH: QVQLVESGGGLVQPGGSLRLSCAASGFTFRSYGMSWVRQAPGKGLEWVSSIRGSSSSTYYADSVKGRFTISRDNSKNTLYLQMNSLRAEDTAVYYCARKYRYWFDYWGQGTLVTVSS
VL: DIELTQPPSVSVAPGQTARISCSGDNLRNYYAHWYQQKPGQAPVVVIYYDNNRPSGIPERFSGSNSGNTATLTISGTQAEDEADYYCQSWDDGVPVFGGGTKLTVLG
notes: Human Fab from HuCAL Gold; also called Fab-2A8; TP-2A8-Fab

EC50 (マウスTFPI(R&D System) [2]): 5.18 nM
EC50 [3]: 0.48 nM
B2: TP-2G6 (Fab, V domains shown)
VH: QVQLQQSGPGLVKPSQTLSLTCAISGDSVSSSSAAWSWIRQSPGRGLEWLGIIYYRSKWYNDYAVSVKSRITINPDTSKNQFSLQLNSVTPEDTAVYYCARHSMVGFDVWGQGTLVTVSS
VL: DIVLTQSPATLSLSPGERATLSCRASQYVTSSYLAWYQQKPGQAPRLLIYGSSRATGVPARFSGSGSGTDFTLTISSLEPEDFATYYCQQYSSSPITFGQGTKVEIKR
notes: Human Fab from HuCAL Gold, purified over Ni-NTA; also called 2G6-Fab

EC50 (マウスTFPI(R&D System) [2]): 0.51 nM
EC50 [3]: 0.22 nM
fold change of EC50 against 2G6-Fab (マウスTFPI(R&D System) [4]): 10 fold
fold change of EC50 against 2G6-Fab [5]: 2 fold
B3: 2G6−IgG (antibody, V domains shown)
VH: B2 VH
VL: B2 VL
notes: also called IgG-2G6; 2G6-IgG

binding result [1]: binds
B4: TP-4B7 (Fab, V domains shown)
VH: QVQLQQSGPGLVKPSQTLSLTCAISGDSVSSNSAAWSWIRQSPGRGLEWLGIIYKRSKWYNDYAVSVKSRITINPDTSKNQFSLQLNSVTPEDTAVYYCARWHSDKHWGFDYWGQGTLVTVSS
VL: DIVMTQSPLSLPVTPGEPASISCRSSQSLVFSDGNTYLNWYLQKPGQSPQLLIYKGSNRASGVPDRFSGSGSGTDFTLKISRVEAEDVGVYYCQQYDSYPLTFGQGTKVEIKR
notes: Human Fab from HuCAL Gold
